Results on twelve substances are retold here after patent US20200291391A1, “CROSS-LINKED EPITOPES AND METHODS OF USE THEREOF” (Indi Molecular, Inc., priority 2019, published 2020).

Test [1] deals with CD8 on CD8+ SupT1 cells (human) (UniProt P01732). Briefly: flow cytometry on CD8+ SupT1 cells. On the technique in general: In flow cytometry, cells or beads pass a laser one at a time.
Test [2] concerns the target immobilized recombinant CD8 protein (UniProt P01732). The test is described as follows: solid-phase ELISA on immobilized recombinant CD8 protein.
The target in test [3] is CD8 on CD8+ SupT1 cells (human) (UniProt P01732). Briefly: flow cytometry on CD8+ SupT1 cells. The source holds these as a separate data set.
Test [4] shares this target. The test is described as follows: flow cytometry on CD8+ SupT1 cells; ligand at 4 µM, 4° C.
Test [5] has the same target. The test is described as follows: flow cytometry on CD8+ SupT1 cells; ligand at 0.15 µM.
Test [6] shares this target. The test is described as follows: flow cytometry on CD8+ SupT1 cells; ligand at 1.3 µM.
For test [7] the target is unchanged. The test is described as follows: flow cytometry on CD8+ SupT1 cells; ligand at 4 µM, room temperature.
The target is the same in test [8]. The test is described as follows: flow cytometry on CD8+ SupT1 cells; ligand at 4 µM.
Test [9] shares this target. The test is described as follows: flow cytometry on CD8+ SupT1 cells; ligand at 0.05 µM.
For test [10] the target is unchanged. Briefly: flow cytometry on CD8+ SupT1 cells; ligand at 0.4 µM.

CD8 on CD8+ SupT1 cells (human), sequence (P01732 22-235): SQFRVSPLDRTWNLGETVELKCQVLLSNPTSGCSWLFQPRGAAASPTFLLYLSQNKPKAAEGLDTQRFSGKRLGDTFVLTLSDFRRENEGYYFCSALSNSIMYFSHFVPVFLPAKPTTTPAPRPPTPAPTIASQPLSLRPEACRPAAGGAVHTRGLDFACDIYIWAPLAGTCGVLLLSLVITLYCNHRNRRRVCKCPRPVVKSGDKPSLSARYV

For the substance “Biotin-1kPEG-vlyrr (SEQ ID NO: 30) (peptide)”, the MFIR (Mean Fluorescence Intensity Ratio) (ratio relative to Biotin1k-PEG) in test [1] was found to be 2. Besides, the EC50 in test [2] came out at 77 nM.
In the case of “Biotin anti-CD8a Ab (Clone RPA-T8) (antibody)”, the results for the MFIR (Mean Fluorescence Intensity Ratio) (ratio relative to unstained) in [3] and in test [1] were 86.6 and 73.9, respectively.
With “Biotin-1kPEG-rpyay (SEQ ID NO: 35) (peptide)”, in [1], the MFIR (Mean Fluorescence Intensity Ratio) (ratio relative to Biotin1k-PEG) came to 1.
“Biotin-1kPEG-aykfn (SEQ ID NO: 36) (peptide)”: the MFIR (Mean Fluorescence Intensity Ratio) (ratio relative to Biotin1k-PEG) in test [1] was 1.1.
The same measure, in the same setting: with “Biotin-1kPEG-yfrsr (SEQ ID NO: 33) (peptide)” the figure was 1.1.
For “Biotin-1kPEG-cy(snprk) (SEQ ID NO: 28) (peptide)”, in [1], the MFIR (Mean Fluorescence Intensity Ratio) (ratio relative to unstained) is 1.1.
In the case of “Biotin-1kPEG-nfyrr (SEQ ID NO: 32) (peptide)”, the MFIR (Mean Fluorescence Intensity Ratio) (ratio relative to Biotin1k-PEG) in [1] was found to be 1.2. For the same substance, the EC50 in test [2] stood at 47 nM.
“Biotin-1kPEG-cy(krsah) (SEQ ID NO: 27) (peptide)”: in test [1], the MFIR (Mean Fluorescence Intensity Ratio) (ratio relative to unstained) was 1.6.
Turning to “Biotin-1kPEG-yrsny (SEQ ID NO: 34) (peptide)”, in [1], the MFIR (Mean Fluorescence Intensity Ratio) (ratio relative to Biotin1k-PEG) turned out to be 1.
On the same count and under the same terms, next, “Biotin-1kPEG-rftaf (SEQ ID NO: 37) (peptide)”: 1.1.
In the case of “Biotin-1kPEG-cy(tfpkk) (SEQ ID NO: 21) (peptide)”, the MFIR (Mean Fluorescence Intensity Ratio) (ratio relative to unstained) in test [4] came to 1.5; in test [5], 1; in [1], 1.8; in [6] it was 1.1; in test [7], 1.5; in test [8] it was 1.5. In addition, the values for the MFIR (Mean Fluorescence Intensity Ratio) (ratio relative to unstained) in test [9] and in [10] were 1 and 1.1, respectively.
As to “Biotin-1kPEG-yrpfy (SEQ ID NO: 31) (peptide)”, the MFIR (Mean Fluorescence Intensity Ratio) (ratio relative to Biotin1k-PEG) in test [1] was found to be 1.1.

In general, EC50 refers to the concentration giving half of the maximal effect.
